This note sets out measurements from patent US20210139574A1.

Assay in all cases: cell-based or functional assay
Test [1] concerns the target Tau seeds: sonicated human insoluble Tau from patients with Alzheimer's disease (AD-PHF, fraction 8) (human) (UniProt P10636).
Test [2] has as its target Tau seeds: sonicated human insoluble Tau from patients with frontotemporal dementia (FTD-PHF) (human) (UniProt P10636).
The target in test [3] is Tau seeds: sonicated human insoluble Tau from patients with progressive supranuclear palsy (PSP-PHF, fraction 8) (human) (UniProt P10636).
Sequence of Tau seeds: sonicated human insoluble Tau from patients with progressive supranuclear palsy (PSP-PHF, fraction 8) (human) (P10636 other isoform, or with tags, fused parts or gaps limits assumed): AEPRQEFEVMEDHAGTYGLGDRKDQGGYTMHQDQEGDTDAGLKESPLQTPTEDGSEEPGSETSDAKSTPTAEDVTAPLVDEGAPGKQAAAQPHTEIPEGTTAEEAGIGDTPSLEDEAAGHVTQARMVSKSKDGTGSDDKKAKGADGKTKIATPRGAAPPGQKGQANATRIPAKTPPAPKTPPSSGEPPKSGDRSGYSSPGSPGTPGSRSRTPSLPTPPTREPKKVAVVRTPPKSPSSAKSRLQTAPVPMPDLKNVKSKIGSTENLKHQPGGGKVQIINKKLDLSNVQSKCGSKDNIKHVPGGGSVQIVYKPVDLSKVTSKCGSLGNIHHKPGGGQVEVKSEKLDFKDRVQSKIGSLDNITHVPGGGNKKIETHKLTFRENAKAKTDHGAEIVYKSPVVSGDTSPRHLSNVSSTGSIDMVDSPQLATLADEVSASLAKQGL
The target in test [4] is Tau seeds: brain fraction from transgenic mice expressing human Tau P301S (human) (UniProt P10636).
Sequence of Tau seeds: brain fraction from transgenic mice expressing human Tau P301S (human) (P10636 other isoform, or with tags, fused parts or gaps P301S P301S): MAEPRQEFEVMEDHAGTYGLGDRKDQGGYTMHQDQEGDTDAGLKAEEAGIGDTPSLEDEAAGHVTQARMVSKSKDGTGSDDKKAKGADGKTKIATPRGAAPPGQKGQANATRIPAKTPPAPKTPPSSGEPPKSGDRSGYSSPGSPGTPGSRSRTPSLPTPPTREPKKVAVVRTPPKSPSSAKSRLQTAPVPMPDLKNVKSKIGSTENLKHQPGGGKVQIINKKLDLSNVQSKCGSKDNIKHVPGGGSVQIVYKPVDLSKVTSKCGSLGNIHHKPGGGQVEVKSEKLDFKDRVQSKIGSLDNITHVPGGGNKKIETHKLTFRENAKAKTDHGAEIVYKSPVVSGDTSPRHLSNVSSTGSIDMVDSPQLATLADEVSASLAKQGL
Test [5] addresses Tau seeds: brain fraction from transgenic mice expressing human Tau P301L (human) (UniProt P10636).

Sequence of Tau seeds: sonicated human insoluble Tau from patients with frontotemporal dementia (FTD-PHF) (human) (P10636 other isoform, or with tags, fused parts or gaps limits assumed): as the sequence (P10636 other isoform, or with tags, fused parts or gaps limits assumed) above
Sequence of Tau seeds: sonicated human insoluble Tau from patients with Alzheimer's disease (AD-PHF, fraction 8) (human) (P10636 other isoform, or with tags, fused parts or gaps limits assumed): as above
Sequence of IPN002 of WO2014/028777A2 (antibody) (VH): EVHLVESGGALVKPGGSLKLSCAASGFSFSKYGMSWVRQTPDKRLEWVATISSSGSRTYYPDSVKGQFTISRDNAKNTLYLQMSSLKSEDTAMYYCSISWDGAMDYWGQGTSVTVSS
Sequence of IPN002 of WO2014/028777A2 (antibody) (VL): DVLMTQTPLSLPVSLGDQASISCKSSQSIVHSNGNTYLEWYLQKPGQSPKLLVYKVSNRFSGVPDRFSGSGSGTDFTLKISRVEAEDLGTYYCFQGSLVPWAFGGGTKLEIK
Sequence of HJ8.5 of WO 2014/008404 (antibody) (VH): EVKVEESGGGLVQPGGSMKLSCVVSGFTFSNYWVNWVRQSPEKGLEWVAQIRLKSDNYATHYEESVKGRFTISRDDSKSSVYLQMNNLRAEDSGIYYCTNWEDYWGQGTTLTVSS
Sequence of HJ8.5 of WO 2014/008404 (antibody) (VL): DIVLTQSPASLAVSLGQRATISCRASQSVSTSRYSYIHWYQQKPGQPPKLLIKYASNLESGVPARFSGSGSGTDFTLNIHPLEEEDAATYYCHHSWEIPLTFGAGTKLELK
Sequence of Tau seeds: brain fraction from transgenic mice expressing human Tau P301L (human) (P10636 other isoform, or with tags, fused parts or gaps P301L P301L limits assumed): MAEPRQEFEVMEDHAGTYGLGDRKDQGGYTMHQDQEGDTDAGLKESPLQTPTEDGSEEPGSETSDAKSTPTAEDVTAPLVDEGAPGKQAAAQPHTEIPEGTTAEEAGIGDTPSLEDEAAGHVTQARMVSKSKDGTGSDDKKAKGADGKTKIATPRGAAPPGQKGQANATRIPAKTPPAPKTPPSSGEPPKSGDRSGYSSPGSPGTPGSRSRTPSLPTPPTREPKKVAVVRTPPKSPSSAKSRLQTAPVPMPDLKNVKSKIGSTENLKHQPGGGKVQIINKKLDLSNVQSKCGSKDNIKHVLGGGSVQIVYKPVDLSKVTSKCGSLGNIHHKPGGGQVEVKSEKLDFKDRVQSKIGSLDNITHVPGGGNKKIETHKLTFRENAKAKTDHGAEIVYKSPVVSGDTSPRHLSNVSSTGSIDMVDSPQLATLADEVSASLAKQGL

Take AT8 (MN1020) (antibody): the Imax (maximal efficacy at 300 nM), cellular Tau aggregation assay in test [1] was 19%; in test [2], 36%; in test [3], 25%.
For the substance HJ8.5 of WO 2014/008404 (antibody), the Imax (maximal efficacy at 300 nM), cellular Tau aggregation assay in test [4] is 43%; in test [1], 46%; in test [2] it was 67%; in test [3], 79%. The same substance gave an IC50, cellular Tau aggregation assay in test [3] of 73 nM.
Take IPN002 of WO2014/028777A2 (antibody): the IC50, cellular Tau aggregation assay in test [5] is 122 nM; in test [3], 207 nM. The Imax (maximal efficacy at 300 nM), cellular Tau aggregation assay in test [5] stood at 73%; in test [4], 22%; in test [1], 19%; in test [2] it was 50%; in test [3], 64%.
Consider PT3 of WO2013/096380A2 (antibody), for which the IC50, cellular Tau aggregation assay in test [5] turned out to be 26 nM; in test [4] it was 350 nM; in test [1], 32 nM; in test [2], 1 nM; in test [3], 47 nM. The Imax (maximal efficacy at 300 nM), cellular Tau aggregation assay in test [5] was found to be 69%; in test [4], 56%; in test [1], 69%; in test [2] it was 80%; in test [3], 55%.
